Measured values as given in the domain aggregation screens of Martell et al. (2025).

Assay: soluble fraction after stress (log2 fold change); higher = more stays soluble; pooled small domains, quantitative proteomics
Conditions: stress: 75 degC
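Further: 20 min heating vs room temperature control held 20 min.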

Row | Sequence | soluble fraction (log2)
1 | HMSHGFVHLKGAVQHPGIYPVKENTRWDEVVKAAGGLTAAADIQQVNLAKVASDQESLYVPEKGET | 0.149
2 | HMSHGSIYFSGKTGLKGSVDINGTVNSINKKIFLKPGNYNFLIKADGYKNLKGSFQISKGDKKFVELVLIP | -2.1
3 | HMSHGYVELKAENNDALISALENHTWFENIKLDPETNLVKAILTKPIEAENLNKMLFEKGIILSHLVKRK | -0.376
4 | HMSHYDILEVDPKASATEIKQSFRKKSLQYHPDRNKSSDAHEYMTKITEAYNILGDKDKRRHYDMELKL | 0.568
5 | HMSHYEYKVGDRVNLLDYDDFGILYKEKDNFYNVVVYYNGEFVEVNVKRITLEVAAKELYPEGYDLSTLFV | -3.97
6 | HMSIASASVKEKIRDIVSSEPPQKPFSDAKIAEILAEDGIAIARRTVAKYREEIGIPTKSLRKR | -0.0706
7 | HMSIDNALLTLIGKTGTAQTVLRPSGKVVIGDEVYDAVTAGEFIDKGSAIVVTRVEATQLYVEASEA | -0.411
8 | HMSIELEISADGNNYRVSGLSDGEDVRVYSVSGVQVFSGKAQGGEVVIPADNWNKGIYVISAGGSSVKVL | -0.594
9 | HMSIGLEDLIEQKGVADTDLRPSGWINVGNQRIFVVTEGSYIDQNDNVIILSVDGNRVVVRKI | -1.2
10 | HMSIGLEELVGSHGEAITDLRPAGQVSIAARRISAVSEGDFINKGDSVEVLSVEGYRVMVRKLET | -0.34
11 | HMSIITLFQEINAAVAEATGGRVPESVVQNFILGKDVVIPEDVKEIIISKLKAFATDIEGMLEESGFD | -2.62
12 | HMSILDEAEFKKIESALLDFITNNIFTVKELLQASRGIKQDKFWKVFQFLQSERKVVVNELGYIEL | -0.287
13 | HMSILSIGLERGMKKGVAWGIAKSILDILEETGPVSEKTREMIVTETDAERLSAWVKKAARSNSEEDFLSK | -0.799
14 | HMSILSRREHEIMQWVKGGKTNIEIAQILGISARTVRNHLQNVFRKLDVINRAQAVFEVERRR | -2.68
15 | HMSIMNEQIREILNQQVTKTSKIQQLLLLGLTRRQVADLVTNGNYGFVQNVYRNMLDAGIFTP | -1.13
16 | HMSIMNLSEKIVVLRKSNGMSQEELAEKLYVSRQAVSRWEMGTAVPDSTNILQLGKLFHVTTDYLLNDEYE | -3.36
17 | HMSINQIADKGYITRLIDNNANIKDVLYYDASSRILAIEDPKYMFYLKNTDWNQFAKEMGFKLE | -0.794
18 | HMSINTLEVHSLKALENLAESPLLISFSYENEEYNYRLASSDVSLLKKISSNYSDDSDIKGLRFIS | -0.893
19 | HMSIQQEATGNRIRELLLNNGYTVKDIQEVMGFENPQAVYKWLSGKSLPNLDNLLILSKVLHTSIEDILV | -1.09
20 | HMSISSIDFENLKSDELSDAQITQIYRQAQEQGLSIDELSSLAIARGMSPTEVAKLRSRFNSIP | 0.0936
21 | HMSIVVPDLRGKTLEEARAILKEADLDFEINDSTFSKTARPGTIRDVVPSPGSRVKAGRILFISINGF | -0.781
22 | HMSIYQYFNISEINSIDDLKKQYFKLAKKYHPDAGGDKVSFQELQNEYEQLTKKILSGAELNADELKTE | -0.126
23 | HMSKASLFFLFNHKDELYIVDNNHVQDVPKPRELIRRFSTIEQIREHALHLGLPIANDTARE | -3.31
24 | HMSKEGLASLLEDINGLGAIRRKTLIDHFGSVAKIRGARPEEIAALPGMGRKIAEHILASLRED | -0.541
25 | HMSKEKQILQLLQHGYSQRRIADTLSVSRNTVAKVAKAAIEHPVSSDSLDSIDELELHQKLFPEEVLI | -0.486
26 | HMSKGKNEVIAYLKAHNDHRLTVAEILDGLKEEGISINRSTIYRNLDKLVENGDILAFKGKDSESAFYQYS | 0.0611

Row | Sequence | soluble fraction (log2)
27 | HMSKHLWNKVLPKVTTANITNLINQAIRKGEWRMDNKGVVHIIWRYRGKIIEVTGYLKDKVFNVGNAWVR | 0.226
28 | HMSKITNALLMMKLLSNGKVYSVKELSEELGVTERMVRNYKEQLEMSGYIIESFKGPGGGYFINKN | -2.61
29 | HMSKKAIVINLLKRPDGASLKDIMQATYWQAHSVRGFISGSLTKKMGLNVESFKRPDGERAYRIN | -2.47
30 | HMSKLIDQELINFFKNQIESKSFRYGVSIEDSYEEIKSNQIKFYGEQEDKLKAIDNAFIELKRERAGIR | -0.168
31 | HMSKNDLAGDEADVYKLLSVETGKPISDLVNRLPFGKSKTREILNTLAEKGFVYISGSGRGTKYHR | -0.296
32 | HMSKNTFIGNIDDKELYVGSGRYGPFMLYDGKFTNITRYLSDESKELTDITIDDYSKIVNNARPK | -0.175
33 | HMSKNVTMPNLVGYSMRQAKAELLSRGLHLGKLIYVNDIATNNVISQLYRNAEIEPGVKIESESYVDLVVG | -1.76
34 | HMSKPTLTDELLTLDLFEEIIKAKENAKGANKRFSLVGFLESKYIVDQEMLPKVNVKVTEYYNLTREN | -1.8
35 | HMSKPVVWIVGDSTVSAFTDNYYYPRYGWGTQIDKYLDGTFEVKNIALSGRSSTSYTADKEYGELIAG | 0.293
36 | HMSKRIFPNEFQRNSPDAMVMLDKMNLSRINVDPLTKSLTLNGGGSVKTLLNGREVSAVEIAALSP | 0.124
37 | HMSKSENLYSAARELIPGGVNSPVRAFTGVGGTPLFIEKADGAYLYDVDGKAYIDYVGSWGPMVLGHNHP | -0.337
38 | HMSKSIEEIYDEAIRSLANEEYDSAKKLFSYLIDNFSDPEKLPLSLFWLGEIEFSSSNFDQSKIHYIE | -0.15
39 | HMSKSIGEALKEERRSLGLTQEQFIKGIISESFYSKVERGKNEIVAVDLLKILAANNISEEEFLSKLN | -0.694
40 | HMSKSPELMEKIKEFAEGYFRENGETPSNKTIAGAMGMGRSTVYYYLVDMAQRGMISYENGVISTEKIRKL | -1.4
41 | HMSKTDYKILYSDLNREDAKQLSLLLEDKKIPYQTSEDGKTIKIPEGMVNRFRMEVATMGVNF | -0.0248
42 | HMSKTKDVLVQLMAERGLTQSDIARALSVRPQAVQQWVSGKTRPTGKNLEALAEFLQLPPAVIVHGP | -0.282
43 | HMSKTQVKSVLDDIKGIGVVRRKALIKHFNDIEAIKAAQLAELKAVAGMDSKSAQSVYDFFHK | -0.453
44 | HMSKYERVYTGSEINVNHLKSQLEDAGISSVVRNDHESAIRAGFGSDYDRGVLLFVEKDNLLRAKHIIEKT | 0.126
45 | HMSKYLAFTVKKNDELLPFIEKALNGISHTKAKAILANGGAMVNKNTITQYNYPLTPGMTVEISRH | -0.5
46 | HMSLDLNENEKTIFDIIQNKKTIRLSELKIEAGLSNKGWDKAMKSLTKQGLAKVVKTEDQLTVKLL | -0.499
47 | HMSLEDNEVIQRMKVILDRFDEETAVDRTTAFKAVLDHIGKMDAESKTLEHMAEMLEALLDKVLEE | -1.09
48 | HMSLGPNAYGKPATALNILRETVMGKELFDHAFKTYSKRWMFKHPSPEDFFRTMEDASAVDLDWFWR | 0.178
49 | HMSLGSQEYSIGFRNGDSTYHYIDKALKELAYEGVIDELSTQWFGSSRAVDFPSQKDALSELGYIA | -0.123
50 | HMSLGSSLFHARKKSGLTQEAVAEKLGVSRQTISKWETNETLPDIRQSKGLAMLYHMTLDELIE | -0.422
51 | HMSLGTDVVPDFTGKGIKEAKTEFAAYSEGELYIIGEGEKVKEQFPLPGEKVNKNSDLILYV | 0.0388
52 | HMSLIDLLQLNRKSKKLTLMNLVEMTGLSYGKVYRIFNGGIDKPTPDSLKLLAKALQLDYSYLFHKAGYL | -0.468

Row | Sequence | soluble fraction (log2)
53 | HMSLIEQKSQIPLVQGGQRVDKVAAALFTDFSRAELTGWIQQGALTLDGAVVKPKYKVLGGEWLYLRASQS | -1.75
54 | HMSLNIIEITAKKEINELKSFNIIYFNFDKNNSIYEYKISEREKKEILEIEKIIKNSDNVTNYEIRYSF | -1.31
55 | HMSLNQRIKEARIKMGYTQEQLGNLIGVAKTTISGYEKNREPDAATIGLIIDALKVDANFLFQ | -2.06
56 | HMSLNSELIARIENLIASIEDKRSWGYGFAESVLGQVQAGATLSPRQLEIIAKLEKENSYSVQLERQ | -1.16
57 | HMSLPALSAEEQKIVDALHGTPKGVDDIIAETGISSGALLRSLTMLELKKVIVRLPGNRIAPK | -1.53
58 | HMSLPDREVVLETSSDSYYHFKTDHFQRQITYSAVRNAPVRLVTISAERAFEVISLNRRGERPEHLE | -3.24
59 | HMSLQEISDLISQAERADQEQLKEVLKQLHQVESGNQPMSKGFLSSALSTLNKYPALITSIGQLLFKLAT | -0.217
60 | HMSLSEGVSADVVADVQARLMELGYMDEDDPDGNFSESTRIAVEHFQQQAGLPVTGTVDKATLDALNSPD | 0.264
61 | HMSLSQLGLTPRQTDVLALLLKGQPNKLIARELGLSVETVKDHVAAVLRALNVSSRTQAVIAVSQMLQ | -2.13
62 | HMSLSVEESYKLLDISPSAGDEEITKKFRLLALKYHPDKNRSKIEWANNIMSRLNQAYSVIMSSRFESNAE | -1.6
63 | HMSLTTKSVEETLGITRQTLHNWIKEGLLPAPKKDFRNWYIWSDEDLENLRNIIEQKTLINNKKQAV | 0.203
64 | HMSMANKKDFILDTAQKLFMEQGFDQTSISQILEATQIARGTLYYYFSSKEEIMDAIIERTIEQ | -0.966
65 | HMSMDYYNILGVNRNASTGEIKKAYKRASMQHHPDRGGNSDEFIKVQQAYDTLSDNHKRQAYDNP | -0.0907
66 | HMSMDYYSTLGVSKTASASDIKKAYRKLAMANHPDKGGDSAKFAKITEAYDVLKDPQKRNNYDQFGTA | 0.0592
67 | HMSMEQAKAEEIEKLGDNAPERLQAAALFAEKFFPQDVMDAVYKITETADGVRAIEHIMQTVK | -1.11
68 | HMSMISLPNFVGKDIETVKAWAKENGITLIINKVEDSAKKDTVISQNPTNSDYSKILKGSAFTVNIAKE | 0.0389
69 | HMSMRILNHTVVKILKRYRIATDEQLQPLLDEAERSGRSLQDVVLDAKLVSETELTKLFADYAD | -3.66
70 | HMSMVGNIEKILVTGESKKSSELLAGRTENNRVVNFTGEKVLIGSMVNVRIEEVFPNSLGGSYLPS | -0.133
71 | HMSNAIDDAVEKVISENLDLAKERGLQSMGPLMGLVMKELGGTADGKAVSEALRRKISEISD | 0.413
72 | HMSNEDAYIKLRNGFLATLSEADLLLFTLREEGKTQKEIADQLGYKTHSAVSKRLQTMRGQFEGYLKTQ | -1.03
73 | HMSNEIIFNQKSITRFLMNPENNSPMIYPLELGHEMKVIKKNNDWLNVTDEKTGLNGWVISDDFGLTKPEG | -0.118
74 | HMSNETLFEFFEKNISQLTPTLVDNINRSLAVHSKKNVKLAIMIAAKSNVRNWNYISAILNRWEKE | -2.4
75 | HMSNIAQRLVLENALAKLNQEQQTIIDLRIIKGYSVAETARLLGKTESAVRTAQYRALKELAGILEED | -2.07
76 | HMSNIIIYPNPTNDGLIHIKGSKFPFNYALYNLSGKLIETGKKNQIQLNDRGVYLLKIQTEGQTYFKKII | -0.16
77 | HMSNNILEISSNKKNMKIQENKNLVESYYSKTENLYSFKLVFKNKRDLDQFLKEVYEDDSTINYKTSS | -1.27
